In the first experiment the target is T1, Boi1 SH3 (BOI1_YEAST), P38041.
T1 chain: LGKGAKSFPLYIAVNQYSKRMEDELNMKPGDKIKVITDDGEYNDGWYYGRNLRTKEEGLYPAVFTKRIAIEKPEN
Put plainly: SPOT array.
In the case of PPNYKQQPNSPSSN [YLR183C 18-31], the normalised SPOT signal, Boehringer light units (BLU); mean over the file's lines of this peptide turned out to be 61.
Still for that read-out and setting: the value for PKHIRNEPVKPFRN [YHR037W 25-38] was 1660; that for PIGSRYNPNLPVTE [YPR019W 677-690] was 132; that for PPPPRRGPAPPPPP [YOR181W 345-358] was 4340.
Same read-out and setting: as for PLRERIIPILPANS [YMR164C 159-172], the figure is 340; as for PKTGKPLPTQPSSS [YKR001C 557-570], 609; as for PIRLRKRPPPPPPV [YIL156W 508-521], 6390.
The same measure, in the same setting: as for PKSPKAYPKLPDIQ [YDL117W 352-365], the figure is 409.
In turn, PNPLKKAPIPPLAY [YPR059C 36-49] displayed a normalised SPOT signal, Boehringer light units (BLU); mean over the file's lines of this peptide of 73.1.
With PIVKKNVPKPPPLV [YBR123C 400-413], the normalised SPOT signal, Boehringer light units (BLU); mean over the file's lines of this peptide is 262.
Same read-out and setting: the value for PPLPRAPPVPPATF [YJL021C 6-19] was 152; that for PKKSRVLPPLPFPL [YER032W 884-897] was 940; that for PHFAKHSPDSPRTS [YER167W 325-338] was 150.
Still for that read-out and setting: as for PKSEKIEPLSPSFK [YJL172W 61-74], the figure is 536.

In the next experiment the target is T2, Rvs167 SH3 (RV167_YEAST), P39743.
T2 chain: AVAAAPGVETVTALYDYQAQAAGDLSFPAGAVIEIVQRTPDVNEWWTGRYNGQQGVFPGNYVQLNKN
Nature of the experiment: SPOT array.
Turning to PPNYKQQPNSPSSN [YLR183C 18-31], the normalised SPOT signal, Boehringer light units (BLU); mean over the file's lines of this peptide was found to be 1.
PKHIRNEPVKPFRN [YHR037W 25-38] displayed a normalised SPOT signal, Boehringer light units (BLU); mean over the file's lines of this peptide of 49.7.
Still for that read-out and setting: the value for PIGSRYNPNLPVTE [YPR019W 677-690] was 95.7.
As for PPPPRRGPAPPPPP [YOR181W 345-358], the normalised SPOT signal, Boehringer light units (BLU); mean over the file's lines of this peptide was determined as 57.
The molecule PLRERIIPILPANS [YMR164C 159-172] gave a normalised SPOT signal, Boehringer light units (BLU); mean over the file's lines of this peptide of 261.
PKTGKPLPTQPSSS [YKR001C 557-570]: the normalised SPOT signal, Boehringer light units (BLU); mean over the file's lines of this peptide stood at 64.7.
Still for that read-out and setting: as for PIRLRKRPPPPPPV [YIL156W 508-521], the figure is 289; as for PKSPKAYPKLPDIQ [YDL117W 352-365], 0; as for PNPLKKAPIPPLAY [YPR059C 36-49], 28.8.
Still for that read-out and setting: the value for PIVKKNVPKPPPLV [YBR123C 400-413] was 33; that for PPLPRAPPVPPATF [YJL021C 6-19] was 17.7.
Still for that read-out and setting: as for PKKSRVLPPLPFPL [YER032W 884-897], the figure is 18900.
Regarding PHFAKHSPDSPRTS [YER167W 325-338], the normalised SPOT signal, Boehringer light units (BLU); mean over the file's lines of this peptide is 110.
Same read-out and setting: as for PKSEKIEPLSPSFK [YJL172W 61-74], the figure is 44.3.

The next experiment addresses T3, Yfr024 SH3 (LSB3_YEAST), P43603.
T3 chain: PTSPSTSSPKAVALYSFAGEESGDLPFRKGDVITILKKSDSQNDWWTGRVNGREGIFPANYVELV
Nature of the experiment: SPOT array.
Take PPNYKQQPNSPSSN [YLR183C 18-31]: the normalised SPOT signal, Boehringer light units (BLU); mean over the file's lines of this peptide worked out at 184.
Same read-out and setting: as for PKHIRNEPVKPFRN [YHR037W 25-38], the figure is 928; as for PIGSRYNPNLPVTE [YPR019W 677-690], 197; as for PPPPRRGPAPPPPP [YOR181W 345-358], 212.
The same measure, in the same setting: the value for PLRERIIPILPANS [YMR164C 159-172] was 949; that for PKTGKPLPTQPSSS [YKR001C 557-570] was 89.9; that for PIRLRKRPPPPPPV [YIL156W 508-521] was 292.
Still for that read-out and setting: the value for PKSPKAYPKLPDIQ [YDL117W 352-365] was 83.8.
Molecule PNPLKKAPIPPLAY [YPR059C 36-49] showed a normalised SPOT signal, Boehringer light units (BLU); mean over the file's lines of this peptide of 15.3.
Molecule PIVKKNVPKPPPLV [YBR123C 400-413] yielded a normalised SPOT signal, Boehringer light units (BLU); mean over the file's lines of this peptide of 64.6.
The same measure, in the same setting: as for PPLPRAPPVPPATF [YJL021C 6-19], the figure is 135; as for PKKSRVLPPLPFPL [YER032W 884-897], 12800; as for PHFAKHSPDSPRTS [YER167W 325-338], 33.4.
In the case of PKSEKIEPLSPSFK [YJL172W 61-74], the normalised SPOT signal, Boehringer light units (BLU); mean over the file's lines of this peptide turned out to be 0.

Another experiment has as its target T4, Yhr016c SH3 (YSC84_YEAST), P32793.
T4 chain: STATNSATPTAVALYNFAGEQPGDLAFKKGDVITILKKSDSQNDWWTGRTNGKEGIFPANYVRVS
Nature of the experiment: SPOT array.
Consider PPNYKQQPNSPSSN [YLR183C 18-31], for which the normalised SPOT signal, Boehringer light units (BLU); mean over the file's lines of this peptide was 30.5.
With PKHIRNEPVKPFRN [YHR037W 25-38], the normalised SPOT signal, Boehringer light units (BLU); mean over the file's lines of this peptide turned out to be 59.8.
The same measure, in the same setting: as for PIGSRYNPNLPVTE [YPR019W 677-690], the figure is 87.4; as for PPPPRRGPAPPPPP [YOR181W 345-358], 39.4.
Same read-out and setting: as for PLRERIIPILPANS [YMR164C 159-172], the figure is 84.4; as for PKTGKPLPTQPSSS [YKR001C 557-570], 24.1; as for PIRLRKRPPPPPPV [YIL156W 508-521], 25.6.
The same measure, in the same setting: as for PKSPKAYPKLPDIQ [YDL117W 352-365], the figure is 24.1; as for PNPLKKAPIPPLAY [YPR059C 36-49], 16.4.
Regarding PIVKKNVPKPPPLV [YBR123C 400-413], the normalised SPOT signal, Boehringer light units (BLU); mean over the file's lines of this peptide is 27.1.
Still for that read-out and setting: as for PPLPRAPPVPPATF [YJL021C 6-19], the figure is 10.8; as for PKKSRVLPPLPFPL [YER032W 884-897], 3660.
Still for that read-out and setting: as for PHFAKHSPDSPRTS [YER167W 325-338], the figure is 27.4.
The molecule PKSEKIEPLSPSFK [YJL172W 61-74] came in with a normalised SPOT signal, Boehringer light units (BLU); mean over the file's lines of this peptide of 0.1.

The target in a further experiment is Sho1 SH3 (SHO1_YEAST), P40073. Nature of the experiment: SPOT array.
Sho1 SH3 (SHO1_YEAST), P40073, sequence (P40073 295-366): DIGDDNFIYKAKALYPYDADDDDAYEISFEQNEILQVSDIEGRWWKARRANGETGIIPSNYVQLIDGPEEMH
Molecule PPNYKQQPNSPSSN [YLR183C 18-31] yielded a normalised SPOT signal, Boehringer light units (BLU); mean over the file's lines of this peptide of 27.6.
Same read-out and setting: the value for PKHIRNEPVKPFRN [YHR037W 25-38] was 46.8.
Still for that read-out and setting: the value for PIGSRYNPNLPVTE [YPR019W 677-690] was 36.1.
In turn, PPPPRRGPAPPPPP [YOR181W 345-358] registered a normalised SPOT signal, Boehringer light units (BLU); mean over the file's lines of this peptide of 8.1.
The same measure, in the same setting: the value for PLRERIIPILPANS [YMR164C 159-172] was 950.
On the same count and under the same terms, as for PKTGKPLPTQPSSS [YKR001C 557-570], the figure is 22000; as for PIRLRKRPPPPPPV [YIL156W 508-521], 98.1.
Molecule PKSPKAYPKLPDIQ [YDL117W 352-365] gave a normalised SPOT signal, Boehringer light units (BLU); mean over the file's lines of this peptide of 143.
On the same count and under the same terms, as for PNPLKKAPIPPLAY [YPR059C 36-49], the figure is 20.3.
With PIVKKNVPKPPPLV [YBR123C 400-413], the normalised SPOT signal, Boehringer light units (BLU); mean over the file's lines of this peptide worked out at 50.2.
On the same count and under the same terms, the value for PPLPRAPPVPPATF [YJL021C 6-19] was 29.4; that for PKKSRVLPPLPFPL [YER032W 884-897] was 25000.
The same measure, in the same setting: as for PHFAKHSPDSPRTS [YER167W 325-338], the figure is 25.1; as for PKSEKIEPLSPSFK [YJL172W 61-74], 84.8.

In the next experiment the target is T5, Myo5 SH3 (MYO5_YEAST), Q04439.
T5 chain: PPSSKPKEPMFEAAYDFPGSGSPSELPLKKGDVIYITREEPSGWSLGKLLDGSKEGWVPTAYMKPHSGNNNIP
Nature of the experiment: SPOT array.
The molecule PPNYKQQPNSPSSN [YLR183C 18-31] showed a normalised SPOT signal, Boehringer light units (BLU); mean over the file's lines of this peptide of 148.
Still for that read-out and setting: the value for PKHIRNEPVKPFRN [YHR037W 25-38] was 361.
The molecule PIGSRYNPNLPVTE [YPR019W 677-690] came in with a normalised SPOT signal, Boehringer light units (BLU); mean over the file's lines of this peptide of 187.
Still for that read-out and setting: the value for PPPPRRGPAPPPPP [YOR181W 345-358] was 15000.
Same read-out and setting: the value for PLRERIIPILPANS [YMR164C 159-172] was 175.
With PKTGKPLPTQPSSS [YKR001C 557-570], the normalised SPOT signal, Boehringer light units (BLU); mean over the file's lines of this peptide was determined as 193.
As to PIRLRKRPPPPPPV [YIL156W 508-521], the normalised SPOT signal, Boehringer light units (BLU); mean over the file's lines of this peptide amounted to 60300.
On the same count and under the same terms, as for PKSPKAYPKLPDIQ [YDL117W 352-365], the figure is 357; as for PNPLKKAPIPPLAY [YPR059C 36-49], 137; as for PIVKKNVPKPPPLV [YBR123C 400-413], 154.
In turn, PPLPRAPPVPPATF [YJL021C 6-19] gave a normalised SPOT signal, Boehringer light units (BLU); mean over the file's lines of this peptide of 35900.
Still for that read-out and setting: the value for PKKSRVLPPLPFPL [YER032W 884-897] was 3590; that for PHFAKHSPDSPRTS [YER167W 325-338] was 236.
PKSEKIEPLSPSFK [YJL172W 61-74] displayed a normalised SPOT signal, Boehringer light units (BLU); mean over the file's lines of this peptide of 116.

A further experiment concerns the target T6, Boi2 SH3 (BOI2_YEAST), P39969.
T6 chain: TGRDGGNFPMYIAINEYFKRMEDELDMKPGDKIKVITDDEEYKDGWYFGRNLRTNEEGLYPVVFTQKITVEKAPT
Put plainly: SPOT array.
Molecule PPNYKQQPNSPSSN [YLR183C 18-31] gave a normalised SPOT signal, Boehringer light units (BLU); mean over the file's lines of this peptide of 17.5.
PKHIRNEPVKPFRN [YHR037W 25-38] gave a normalised SPOT signal, Boehringer light units (BLU); mean over the file's lines of this peptide of 0.
Same read-out and setting: as for PIGSRYNPNLPVTE [YPR019W 677-690], the figure is 148.
Turning to PPPPRRGPAPPPPP [YOR181W 345-358], the normalised SPOT signal, Boehringer light units (BLU); mean over the file's lines of this peptide worked out at 19.8.
Still for that read-out and setting: the value for PLRERIIPILPANS [YMR164C 159-172] was 16; that for PKTGKPLPTQPSSS [YKR001C 557-570] was 9.7.
On the same count and under the same terms, as for PIRLRKRPPPPPPV [YIL156W 508-521], the figure is 39.2; as for PKSPKAYPKLPDIQ [YDL117W 352-365], 23.5.
Same read-out and setting: as for PNPLKKAPIPPLAY [YPR059C 36-49], the figure is 0.
Molecule PIVKKNVPKPPPLV [YBR123C 400-413] had a normalised SPOT signal, Boehringer light units (BLU); mean over the file's lines of this peptide of 167.
Turning to PPLPRAPPVPPATF [YJL021C 6-19], the normalised SPOT signal, Boehringer light units (BLU); mean over the file's lines of this peptide is 13.2.
Still for that read-out and setting: as for PKKSRVLPPLPFPL [YER032W 884-897], the figure is 16.2; as for PHFAKHSPDSPRTS [YER167W 325-338], 11.
Still for that read-out and setting: the value for PKSEKIEPLSPSFK [YJL172W 61-74] was 7.7.
